Measurements as given in patent US20240083953A1 (University of Washington, published 2024).
Where two headings read alike, the source gives them in different places.

Assays:
[1] = molecular target: DSG2 on human cells (HeLa, T84) (human) (UniProt Q14126); experiment: cell-based or functional assay
[2] = molecular target: DSG2 on human cells (HeLa, T84) (human) (UniProt Q14126); experiment: competition with 3H-labelled Ad3 virus for attachment to HeLa cells
[3] = molecular target: T1, DSG2 on human cells (HeLa, T84) (human, UniProt Q14126 50-1118); experiment: cell-based or functional assay
T1 sequence: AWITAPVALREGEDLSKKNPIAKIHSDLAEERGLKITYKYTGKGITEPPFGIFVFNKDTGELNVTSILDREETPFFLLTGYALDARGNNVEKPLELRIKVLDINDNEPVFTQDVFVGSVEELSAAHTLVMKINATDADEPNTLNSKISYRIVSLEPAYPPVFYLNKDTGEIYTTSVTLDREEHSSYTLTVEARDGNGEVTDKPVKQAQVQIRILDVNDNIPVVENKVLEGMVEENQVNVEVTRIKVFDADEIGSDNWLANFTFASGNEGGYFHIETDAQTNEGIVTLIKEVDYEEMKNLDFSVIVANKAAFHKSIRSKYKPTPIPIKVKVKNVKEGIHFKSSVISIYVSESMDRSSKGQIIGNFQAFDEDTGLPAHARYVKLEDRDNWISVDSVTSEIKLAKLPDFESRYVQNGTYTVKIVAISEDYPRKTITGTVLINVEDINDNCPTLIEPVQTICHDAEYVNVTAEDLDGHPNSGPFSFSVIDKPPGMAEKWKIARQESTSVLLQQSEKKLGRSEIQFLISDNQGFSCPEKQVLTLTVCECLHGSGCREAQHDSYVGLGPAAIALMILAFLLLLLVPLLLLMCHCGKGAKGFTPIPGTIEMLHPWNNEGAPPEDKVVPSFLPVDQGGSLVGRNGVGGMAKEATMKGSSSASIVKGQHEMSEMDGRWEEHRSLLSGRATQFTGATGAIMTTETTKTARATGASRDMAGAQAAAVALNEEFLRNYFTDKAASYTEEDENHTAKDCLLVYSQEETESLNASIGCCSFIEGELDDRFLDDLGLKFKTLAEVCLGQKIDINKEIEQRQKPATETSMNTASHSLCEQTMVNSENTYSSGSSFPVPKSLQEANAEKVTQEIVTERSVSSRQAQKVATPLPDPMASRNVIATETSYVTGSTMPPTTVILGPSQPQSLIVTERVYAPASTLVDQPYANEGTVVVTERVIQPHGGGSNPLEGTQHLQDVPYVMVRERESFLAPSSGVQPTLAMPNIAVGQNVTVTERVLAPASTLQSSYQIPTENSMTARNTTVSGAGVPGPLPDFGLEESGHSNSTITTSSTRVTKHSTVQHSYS

[4] = molecular target: T1, DSG2 on human cells (HeLa, T84); experiment: cell-based or functional assay; remark: listed apart in the source
Soluble CD46 = molecular target: T2, Soluble CD46 (UniProt P15529 35-343); experiment: Western blot, soluble CD46 as probe, anti-CD46 mAb
T2 construct: also called sCD46
T2 sequence: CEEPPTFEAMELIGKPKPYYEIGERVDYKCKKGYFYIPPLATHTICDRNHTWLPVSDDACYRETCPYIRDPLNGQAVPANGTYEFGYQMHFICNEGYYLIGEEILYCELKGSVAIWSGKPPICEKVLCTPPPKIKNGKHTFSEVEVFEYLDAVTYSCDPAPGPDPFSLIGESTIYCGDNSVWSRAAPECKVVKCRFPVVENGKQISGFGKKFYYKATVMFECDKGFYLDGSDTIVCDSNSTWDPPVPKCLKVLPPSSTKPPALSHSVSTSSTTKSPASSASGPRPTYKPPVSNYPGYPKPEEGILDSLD

[5] = molecular target: T3, Recombinant human DSG2 protein (desmoglein 2), soluble (human, UniProt Q14126 50-609); experiment: Western blot of dimeric knob, soluble DSG2 as probe
T3 construct: also called soluble DSG2; soluble recombinant DSG2
T3 sequence: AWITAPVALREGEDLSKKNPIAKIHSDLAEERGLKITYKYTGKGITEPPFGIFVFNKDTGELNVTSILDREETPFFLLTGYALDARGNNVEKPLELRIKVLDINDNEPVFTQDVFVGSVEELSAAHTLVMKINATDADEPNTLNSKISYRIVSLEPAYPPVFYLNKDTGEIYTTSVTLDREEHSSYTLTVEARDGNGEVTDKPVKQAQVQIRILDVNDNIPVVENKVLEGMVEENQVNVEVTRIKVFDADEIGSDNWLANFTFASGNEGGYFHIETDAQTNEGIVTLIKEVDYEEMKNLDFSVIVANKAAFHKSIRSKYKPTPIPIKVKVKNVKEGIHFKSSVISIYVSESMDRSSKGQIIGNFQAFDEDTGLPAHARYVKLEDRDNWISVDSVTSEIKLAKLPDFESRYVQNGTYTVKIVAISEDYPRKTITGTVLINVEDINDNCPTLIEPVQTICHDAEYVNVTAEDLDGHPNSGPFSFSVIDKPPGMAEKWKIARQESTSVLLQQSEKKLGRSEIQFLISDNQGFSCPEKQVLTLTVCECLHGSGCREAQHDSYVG

[6] = molecular target: T3, Recombinant human DSG2 protein …; experiment: Western blot of the blotted knob protein probed with soluble human DSG2, anti-DSG2 mAb 6D8 and HRP-anti-mouse IgG
[7] = molecular target: T1, DSG2 on human cells (HeLa, T84); experiment: cell-based or functional assay; remark: listed apart in the source
[8] = molecular target: T3, Recombinant human DSG2 protein …; experiment: SPR, DSG2 immobilised; the filing's constants were got with the knobs without dimerization domain, so the value is set on V239D/noDD
[9] = molecular target: T3, Recombinant human DSG2 protein …; experiment: SPR, DSG2 immobilised; the filing's constants were got with the knobs without dimerization domain, so the value is set on Y250F/noDD

For “Dimeric Ad3 fiber knob mutant D261N, L296R (ligand)”, the Inhibition of infection in the presence of dimeric knob (JO-1 = 100%) [1] was 1.5% and the Inhibition of attachment in the presence of dimeric knob (JO-1 = 100%) [2] was 20.1%.

“Dimeric Ad3 fiber knob mutant N186D, D261N, L296R (ligand)” gave an Inhibition of infection in the presence of dimeric knob (JO-1 = 100%) [1] of 0% and an Inhibition of attachment in the presence of dimeric knob (JO-1 = 100%) [2] of 18.5%.

B1: JO-1 (dimeric wild-type Ad3 fiber knob) (ligand)
chain: MKVSALKEKVSALKEKVSALKEKVSALKEKVSALKEGSGGGSGGGSGGGSNSIALKNNTLWTGPKPEANCIIEYGKQNPDSKLTLILVKNGGIVNGYVTLMGASDYVNTLFKNKNVSINVELYFDATGHILPDSSSLKTDLELKYKQTADFSARGFMPSTTAYPFVLPNAGTHNENYIFGQCYYKASDGALFPLEVTVMLNKRLPDSRTSYVMTFLWSLNAGLAPETTQATLITSPFTFSYIREDD
notes: also called dimeric wt Ad3 fiber knob; dimeric wtAd3 knob
B1 was tested, and the “IC50 (read off the curve): inhibition of Ad3-GFP infection of HeLa cells, % GFP-positive cells” value [3] was about 5 µg/mL, the “IC50 (read off the curve): inhibition of Ad3-GFP infection of HeLa cells, MFI of GFP” value [4] was about 0.6 µg/mL and the binding result (Soluble CD46) was “no binding”.

B2: Dimeric Ad3 fiber knob mutant N186D, D261N, L296R (ligand)
chain: MKVSALKEKVSALKEKVSALKEKVSALKEKVSALKEGSGGGSGGGSGGGSNSIALKNNTLWTGPKPEANCIIEYGKQNPDSKLTLILVKNGGIVNGYVTLMGASDYVNTLFKDKNVSINVELYFDATGHILPDSSSLKTDLELKYKQTADFSARGFMPSTTAYPFVLPNAGTHNENYIFGQCYYKASNGALFPLEVTVMLNKRLPDSRTSYVMTFLWSLNAGRAPETTQATLITSPFTFSYIREDD
notes: also called mutant with mutations in all three areas (N185, D261, L296)
B2: no binding [5].

B3: Ad3-S/Kn (ligand)
chain: SIALKNNTLWTGPKPEANCIIEYGKQNPDSKLTLILVKNGGIVNGYVTLMGASDYVNTLFKNKNVSINVELYFDATGHILPDSSSLKTDLELKYKQTADFSARGFMPSTTAYPFVLPNAGTHNENYIFGQCYYKASDGALFPLEVTVMLNKRLPDSRTSYVMTFLWSLNAGLAPETTQATLITSPFTFSYIREDD
B3: no binding (Soluble CD46); no binding [6].

B4: Ad3-S6/Kn (ligand)
chain: NGVLSLKCVNPLTTASGSLQLKVGSGLTVDTTDGSLEENIKVNTPLTKSNHSINLPIGNGLQIEQNKLCSKLGNGLTFDSSNSIALKNNTLWTGPKPEANCIIEYGKQNPDSKLTLILVKNGGIVNGYVTLMGASDYVNTLFKNKNVSINVELYFDATGHILPDSSSLKTDLELKYKQTADFSARGFMPSTTAYPFVLPNAGTHNENYIFGQCYYKASDGALFPLEVTVMLNKRLPDSRTSYVMTFLWSLNAGLAPETTQATLITSPFTFSYIREDD
notes: also called Ad3 fiber knob with six shaft motifs
B4: no binding (Soluble CD46).

B5: Ad3 fiber knob mutant V239D without dimerization domain (ligand)
chain: NKLCSKLGNGLTFDSSNSIALKNNTLWTGPKPEANCIIEYGKQNPDSKLTLILVKNGGIVNGYVTLMGASDYVNTLFKNKNVSINVELYFDATGHILPDSSSLKTDLELKYKQTADFSARGFMPSTTAYPFDLPNAGTHNENYIFGQCYYKASDGALFPLEVTVMLNKRLPDSRTSYVMTFLWSLNAGLAPETTQATLITSPFTFSYIREDD
notes: range 108-319; also called V239D/noDD; not shown: N-terminal 6-His tag of pQE30 and a Gly/Ser linker coded by primer P1
For B5, the “IC50 (read off the curve): inhibition of Ad3-GFP infection of HeLa cells, MFI of GFP” value [7] was about 4 µg/mL and the Kd [8] was 24.9 nM.

B6: Ad3 fiber knob mutant Y250F without dimerization domain (ligand)
chain: NKLCSKLGNGLTFDSSNSIALKNNTLWTGPKPEANCIIEYGKQNPDSKLTLILVKNGGIVNGYVTLMGASDYVNTLFKNKNVSINVELYFDATGHILPDSSSLKTDLELKYKQTADFSARGFMPSTTAYPFVLPNAGTHNENFIFGQCYYKASDGALFPLEVTVMLNKRLPDSRTSYVMTFLWSLNAGLAPETTQATLITSPFTFSYIREDD
notes: range 108-319; also called Y250F/noDD; not shown: N-terminal 6-His tag of pQE30 and a Gly/Ser linker coded by primer P1
B6 was tested, and the Kd [9] was 11.4 nM.
